The experiment deals with T1, IrtA, full length (subunit of full-length Mtb IrtAB) (M. tuberculosis H37Rv, UniProt P9WQJ9 1-859).
T1 construct: also called Rv1348
T1 sequence: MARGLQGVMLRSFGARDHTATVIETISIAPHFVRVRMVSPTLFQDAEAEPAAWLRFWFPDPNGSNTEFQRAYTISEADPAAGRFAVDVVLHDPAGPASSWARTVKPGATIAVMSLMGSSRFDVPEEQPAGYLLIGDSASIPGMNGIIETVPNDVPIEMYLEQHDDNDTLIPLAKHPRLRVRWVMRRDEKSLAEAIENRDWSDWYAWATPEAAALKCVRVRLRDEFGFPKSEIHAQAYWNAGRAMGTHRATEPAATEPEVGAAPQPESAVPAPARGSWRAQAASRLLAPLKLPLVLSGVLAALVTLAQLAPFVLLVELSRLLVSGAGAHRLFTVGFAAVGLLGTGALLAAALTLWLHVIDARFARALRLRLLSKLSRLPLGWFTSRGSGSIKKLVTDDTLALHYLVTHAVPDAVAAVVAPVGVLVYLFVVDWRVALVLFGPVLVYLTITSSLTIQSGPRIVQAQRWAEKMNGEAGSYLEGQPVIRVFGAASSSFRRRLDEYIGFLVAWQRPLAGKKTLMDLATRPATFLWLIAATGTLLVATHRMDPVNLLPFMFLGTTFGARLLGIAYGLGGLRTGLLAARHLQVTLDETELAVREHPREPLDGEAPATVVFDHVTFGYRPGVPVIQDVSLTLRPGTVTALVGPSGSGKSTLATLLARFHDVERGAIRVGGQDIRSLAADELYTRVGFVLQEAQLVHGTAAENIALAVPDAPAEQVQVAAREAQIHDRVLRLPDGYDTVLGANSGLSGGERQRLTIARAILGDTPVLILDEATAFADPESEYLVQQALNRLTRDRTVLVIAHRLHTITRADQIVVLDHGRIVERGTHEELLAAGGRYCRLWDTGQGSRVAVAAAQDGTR
The experiment in a line: cryo-EM structure; full-length IrtAB in digitonin, no nucleotide added; 20 mM MES, 150 mM NaCl, pH 6.5; inward-facing. Particulars: both partners purified.

B1: IrtB with a C-terminal 10x His tag (subunit of Mtb IrtAB) (natural protein)
chain: MIRTWIALVPNDHRARLIGFALLAFCSVVARAVGTVLLVPLMAALFGEAPQRAWLWLGWLSAATVAGWVLDAVTARIGIELGFAVLNHTQHDVADRLPVVRLDWFTAENTATARQAIAATGPELVGLVVNLVTPLTSAILLPAVIALALLPISWQLGVAALAGVPLLLGALWASAAFARRADTAADKANTALTERIIEFARTQQALRAARRVEPARSLVGNALASQHTATMRLLGMQIPGQLLFSIASQLALIVLAGTTAALTITGTLTVPEAIALIVVMVRYLEPFTAVSELAPALESTRATLGRIGSVLTAPVMVAGSGTWRDGAVVPRIEFDDVAFGYDGGSGPVLDGVSFCLQPGTTTAIVGPSGCGKSTILALIAGLHQPTRGRVLIDGTDVATLDARAQQAVCSVVFQHPYLFHGTIRDNVFAADPGASDDQFAQAVRLARVDELIARLPDGANTIVGEAGSALSGGERQRVSIARALLKAAPVLLVDEATSALDAENEAAVVDALAADPRSRTRVIVAHRLASIRHADRVLFVDDGRVVEDGSISELLTAGGRFSQFWRQQHEAAEWQILAE
notes: IrtB (Rv1349) of Mycobacterium tuberculosis H37Rv, TMD and NBD; The same IrtB chain stands in full-length IrtAB and in IrtAB(ΔSID); also called Rv1349
As for B1, the binding result is given as “binds”.
